# Test results taken from US20240156870A1 (NATIONAL RESEARCH COUNCIL OF CANADA, published 2024).
# Legend:
# [1] = molecular target: recombinant human EGFRvIII ectodomain (human) (UniProt P00533); assay: SPR multi-cycle, VHH over amine-coupled EGFRvIII ectodomain
# [2] = molecular target: T1, human EGFR-Fc fusion protein (human, UniProt P00533 25-645); assay: SPR single-cycle, VHH over amine-coupled human EGFR-Fc
# T1 construct: Bought; not shown: Fc part of the bought fusion
# [3] = molecular target: recombinant 6xHis-tagged human EGFR ectodomain (human) (UniProt P00533); assay: SPR multi-cycle, VHH over amine-coupled EGFR ectodomain
# [4] = molecular target: T2, human EGFR, native, on the cell surface (human, UniProt P00533 25-1210); assay: Mirrorball microplate cytometry, adherent MDA-MB-468 cells
# T2 construct: MCF7 is EGFR-low and serves as low-expression control; also called native cell-surface EGFR
# [5] = molecular target: T2, human EGFR, native, on the cell surface; assay: Mirrorball microplate cytometry, serial dilution, AF488 anti-human Fc; the cell line is not named in the legend of FIG. 5D (paragraph 463 treats it with the MDA-MB-468 assay of FIG. 5B)
# [6] = molecular target: T1, human EGFR-Fc fusion protein; assay: SPR, VHH over human EGFR-Fc;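 also: Single-cycle kinetics on Biacore T200 at 25 °C in HBS-EP, monomeric VHHs at 0.6–50 nM flowed over immobilized EGFR, 180 s association, 600 s dissociation, ethanolamine-blocked reference cell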
# Procedure: (§1) In the second SPR experiment, single-cycle kinetic analyses were performed on a Biacore™ T200 instrument (GE Healthcare) at 25° C. in HBS-EP buffer. […] An ethanolamine-blocked flow cell served as the reference. Monomeric VHHs at concentrations ranging from 0.6 to 50 nM were injected over the EGFR surfaces in HBS-EP buffer at a flow rate of 40 μL/min. The contact time was 180 s and the dissociation time was 600 s. The EGFR surfaces were regenerated using a 10 s pulse of 10 mM glycine, pH 1.5.
# [7] = molecular target: T3, recombinant 6xHis-tagged human EGFR ectodomain (human, UniProt P00533 25-645); assay: SPR (value of Table 2 repeated in Table 6)
# T3 construct: extracellular domain; Bought; also called recombinant human EGFR; EGFR extracellular domain; not shown: 6xHis tag
# [8] = molecular target: T3, recombinant 6xHis-tagged human EGFR …; assay: SPR multi-cycle, VHH over amine-coupled EGFR ectodomain
# Procedure: In the first SPR experiment, multi-cycle kinetic analyses were performed on a Biacore™ 3000 instrument (GE Healthcare) at 25° C. in HBS-EP buffer [10 mM HEPES, pH 7.4, containing 150 mM NaCl, 3 mM EDTA and 0.005% (w/v) surfactant P20]. […] An ethanolamine-blocked flow cell served as the reference. Monomeric VHHs at concentrations ranging from 0.1 to 100 nM were injected over the EGFR and EGFRvIII surfaces in HBS-EP buffer at a flow rate of 20 μL/min. […] Contact times were 180-300 s and dissociation times were 300-600 s.
# [9] = molecular target: T4, rhesus EGFR-Fc fusion protein (rhesus, UniProt P55245 25-645); assay: SPR single-cycle, VHH over amine-coupled rhesus EGFR-Fc
# T4 construct: Bought; not shown: Fc part of the bought fusion
# [10] = molecular target: T5, mouse EGFR-Fc fusion protein (mouse, UniProt Q01279 25-647); assay: SPR single-cycle, VHH over amine-coupled mouse EGFR-Fc
# T5 construct: Bought; not shown: Fc part of the bought fusion
# [11] = molecular target: T4, rhesus EGFR-Fc fusion protein; assay: SPR single-cycle, VHH over amine-coupled rhesus EGFR-Fc; remark: listed apart in the source
# Procedure: as §1
# [12] = molecular target: T1, human EGFR-Fc fusion protein; assay: ELISA, VHH titrated from about 0.5 to 1000 ng/mL, OD 450 nm
# [13] = molecular target: T4, rhesus EGFR-Fc fusion protein; assay: as above
# [14] = molecular target: T5, mouse EGFR-Fc fusion protein; assay: as above
molecule,measurement,setting,value
EG2 VHH,Kd,[1],14.6 nM
same,kon,[1],1.2e+06 M⁻¹ s⁻¹
same,Kd,[2],11.1 nM
same,kon,[2],850000 M⁻¹ s⁻¹
same,Kd,[3],19.1 nM
EG2-Fc (Fc fusion),EC50,[4],279 nM
"NRC-sdAb032-Fc (Fc fusion, Bivalent VHH-human IgG1 Fc fusion from HEK293-6E cells; also called homodimeric NRC-sdAb032-Fc; not shown: human IgG1 Fc) QVKLEESGGGLVQPGGSLRLSCSASGSISSISVMGWYRQAPGKQRELVARITSGGISNYVDSVKGRFTISGDSAKNIVYLQMNSLKPEDTAVYYCYMYVHVGYWVDYWGQGTQVTVSS",EC50,[5],0.9 nM
same,EC50,[4],0.5 nM
"NRC-sdAb032-H1 (VHH, Humanized variant H1 of NRC-sdAb032) VHH: QVQLVESGGGLVQPGRSLRLSCSASGSISSISVMGWYRQAPGKGLELVARITSGGISNYVDSVKGRFTISRDSNSKNTLYLQMNSLRAEDTAVYYCYMYVHVGYWVDYWGQGTLVTVSS",Kd,[6],16.6 nM
same,koff,[6],0.01 s⁻¹
same,kon,[6],620000 M⁻¹ s⁻¹
"NRC-sdAb028-H1 (VHH, Humanized variant H1 of NRC-sdAb028) VHH: QVQLVESGGGVVQPGRSLRLSCTVSGSFFSRDAMGWHRQAPGKGLEMVAGISSGGLSNHAESVKGRFTISRDNSKNTLYLQMNSLRAEDTAVYYCSIYEDGVWTSWGQGTLVTVSS",Kd,[6],6.2 nM
same,koff,[6],0.00058 s⁻¹
same,kon,[6],93000 M⁻¹ s⁻¹
"NRC-sdAb028-Fc (Fc fusion, Bivalent VHH-human IgG1 Fc fusion from HEK293-6E cells; not shown: human IgG1 Fc) EVQLVESGGGLVQPGGSLRLSCTVSGSFFSRDAMGWHRQAPGKQREMVAGISSGGLSNHAESVKGRFTISRDNSKNTVYLQMNNLKPEDTAVYYCSIYEDGVWTSWGQGTQVTVSS",EC50,[4],86 nM
"NRC-sdAb032/NRC-sdAb028-Fc (Fc fusion, Member of the group m26; also called NRC-sdAb032/028-Fc; biparatopic heterodimeric VHH/VHH-Fc) chain 1: QVKLEESGGGLVQPGGSLRLSCSASGSISSISVMGWYRQAPGKQRELVARITSGGISNYVDSVKGRFTISGDSAKNIVYLQMNSLKPEDTAVYYCYMYVHVGYWVDYWGQGTQVTVSS chain 2: EVQLVESGGGLVQPGGSLRLSCTVSGSFFSRDAMGWHRQAPGKQREMVAGISSGGLSNHAESVKGRFTISRDNSKNTVYLQMNNLKPEDTAVYYCSIYEDGVWTSWGQGTQVTVSS",EC50,[5],2.1 nM
"NRC-sdAb021 (VHH, Monomeric llama VHH purified from E. coli periplasm; also called EGFR1; not shown: C-terminal c-Myc and 6xHis tags) VHH: QVQLVESGGGLVQPGGSLRLSCSVSLSDFGSKHLAWHRQAPGKEREWVALIFSSGATNYANSVKGRFTISRDNSKNTVYLQMNSLKPEDTAVYYCNLVPPSPAWGQGTQVTVSS",Kd,[1],40.4 nM
same,koff,[1],0.0098 s⁻¹
same,kon,[1],240000 M⁻¹ s⁻¹
same,Kd,[7],38.5 nM
same,Kd,[8],38.5 nM
same,koff,[8],0.012 s⁻¹
same,kon,[8],310000 M⁻¹ s⁻¹
"NRC-sdAb023 (VHH, Monomeric llama VHH; also called EGFR3; not shown: C-terminal c-Myc and 6xHis tags) VHH: QVQLVESGGGLVQPGGSLRLSCTASGIIFSRNGVSWYRQAPGKEREFVAVITLSGTTTYKDSVKGRFTISRDNTRNTGYLQMNNLKPEDTAVYYCNLVPPTSYWGQGTQVTVSS",Kd,[1],19.4 nM
same,Kd,[8],12.6 nM
same,koff,[8],0.0057 s⁻¹
same,kon,[8],460000 M⁻¹ s⁻¹
"NRC-sdAb027 (VHH, Monomeric llama VHH; also called EGFR7; not shown: C-terminal c-Myc and 6xHis tags) VHH: QVKLEESGGGLVQPGGSLKLSCAVSGFAFERNGVSWYRQAPGKQREFVAVISSGTTTYKDSVKGRFTISRDNTRNTAYLQMNNLKPEDTAVYYCNLIPPTPYWGQGTQVTVSS",Kd,[1],2.3 nM
same,koff,[1],0.00086 s⁻¹
same,kon,[1],380000 M⁻¹ s⁻¹
same,Kd,[7],1.6 nM
same,Kd,[8],1.6 nM
same,koff,[8],0.00079 s⁻¹
same,kon,[8],510000 M⁻¹ s⁻¹
"NRC-sdAb032/NRC-sdAb022-Fc (Fc fusion, Member of the group m26; also called NRC-sdAb032/022-Fc; biparatopic heterodimeric VHH/VHH-Fc) chain 1: QVKLEESGGGLVQPGGSLRLSCSASGSISSISVMGWYRQAPGKQRELVARITSGGISNYVDSVKGRFTISGDSAKNIVYLQMNSLKPEDTAVYYCYMYVHVGYWVDYWGQGTQVTVSS chain 2: QVQLVESGGGLVQPGGSLKLSCAVSGFAFERNGVSWYRQAPGKQREFVAVISSGTTTYKDSVKGRFTISRDNTRNTAYLQMNNLKPEDTAVYYCNLVPPTPYWGQGTQVTVSS",EC50,[5],1.6 nM
"NRC-sdAb022-Fc (Fc fusion, Bivalent VHH-human IgG1 Fc fusion from HEK293-6E cells; not shown: human IgG1 Fc) QVQLVESGGGLVQPGGSLKLSCAVSGFAFERNGVSWYRQAPGKQREFVAVISSGTTTYKDSVKGRFTISRDNTRNTAYLQMNNLKPEDTAVYYCNLVPPTPYWGQGTQVTVSS",EC50,[4],67 nM
"NRC-sdAb024 (VHH, Monomeric llama VHH; also called EGFR4; not shown: C-terminal c-Myc and 6xHis tags) VHH: QVQLVESGGGLVQPGGSLRLSCAASGSSLYINAMTWYRQAPGEQREFVAIISRGGDTKYSDSVKGRFSISIDNAKNTVYLQMNSLKAEDTAVYYCNAVPPFPNWGQGTQVTVSS",Kd,[1],4.9 nM
same,koff,[1],0.0009 s⁻¹
same,kon,[1],180000 M⁻¹ s⁻¹
same,Kd,[8],2.9 nM
same,koff,[8],0.00073 s⁻¹
same,kon,[8],250000 M⁻¹ s⁻¹
"NRC-sdAb025 (VHH, Monomeric llama VHH; also called EGFR5; not shown: C-terminal c-Myc and 6xHis tags) VHH: QVQLVESGGGLVQPGGSLRLSCAASGSSLTINAMTWYRQAPGDEREFVAIVYRGGGTKYADSVKGRFSISIDNAKNTVYLQMNSLKAEDTAVYYCNAVPPFPNWGQGTQVTVSS",Kd,[1],2.8 nM
same,koff,[1],0.00071 s⁻¹
same,kon,[1],260000 M⁻¹ s⁻¹
same,Kd,[8],1.7 nM
same,koff,[8],0.00059 s⁻¹
same,kon,[8],360000 M⁻¹ s⁻¹
"NRC-sdAb033-H2 (VHH, Humanized variant H2 of NRC-sdAb033) VHH: QVQLVESGGGVVQPGRSLRLSCAASESIDSIYVMQWYRQAPGKGLEVVATLTPGGGSYYPDSVKGRFTISRDNSKNTLYLQMNSLRAEDTAVYYCNAFHRLRGTHYWGQGTLVTVSS",Kd,[6],1.4 nM
same,koff,[6],0.00026 s⁻¹
same,kon,[6],200000 M⁻¹ s⁻¹
"NRC-sdAb033-H1 (VHH, Humanized variant H1 of NRC-sdAb033) VHH: QVQLVESGGGVVQPGRSLRLSCAASESIDSIYVMQWYRQAPEKGLDVVATLTPGGGSYYPESVKGRFTISRDNSKNTLYLQMNSLRAEDTAVYYCNAFHRLRGTHYWGQGTLVTVSS",Kd,[6],1.7 nM
same,koff,[6],0.00022 s⁻¹
same,kon,[6],130000 M⁻¹ s⁻¹
"NRC-sdAb026 (VHH, Monomeric llama VHH; also called EGFR6; not shown: C-terminal c-Myc and 6xHis tags) VHH: QVQLVESGGALVQPGGSLRLSCSASGVIFGINTLAWHRQAPGKEREWVALISNAGSTKYAGSVKGRFTISRDNDKNTVYLQMDSLKPEDTAVYYCNYVPPSPAWGQGTQVTVSS",Kd,[1],25 nM
same,koff,[1],0.0068 s⁻¹
same,kon,[1],270000 M⁻¹ s⁻¹
same,Kd,[8],15.4 nM
same,koff,[8],0.0056 s⁻¹
same,kon,[8],360000 M⁻¹ s⁻¹
"NRC-sdAb033 (VHH, Monomeric llama VHH; in ELISA a version with biotin acceptor peptide and 6xHis was used; also called EVE48; not shown: C-terminal c-Myc and 6xHis tags) VHH: QVQLVESGGGLVQPGGSLRLSCAASESIDSIYVMQWYRQAPEKPRDVVATLTPGGGSYYPEAVLGRFTISRDDAKNTVYLQMNSLKPEDTAVYYCNAFHRLRGTHYWGQGTQVTVSS",Kd,[9],1 nM
same,Kd,[6],1.8 nM
same,koff,[6],0.00016 s⁻¹
same,kon,[6],90000 M⁻¹ s⁻¹
same,Kd,[10],3.1 nM
same,koff,[10],0.00028 s⁻¹
same,kon,[10],92000 M⁻¹ s⁻¹
same,Kd,[8],1.1 nM
same,koff,[8],0.00017 s⁻¹
same,kon,[8],150000 M⁻¹ s⁻¹
same,koff,[11],0.00011 s⁻¹
same,kon,[11],110000 M⁻¹ s⁻¹
same,EC50 (read off the curve),[12],~0.02 µg/mL
same,EC50 (read off the curve),[13],~0.02 µg/mL
same,EC50 (read off the curve),[14],~0.02 µg/mL
same,Kd,[2],1.8 nM
same,koff,[2],0.00016 s⁻¹
same,kon,[2],90000 M⁻¹ s⁻¹
"NRC-sdAb032/NRC-sdAb033-Fc (Fc fusion, Member of the group m26; also called NRC-sdAb032/033-Fc; biparatopic heterodimeric VHH/VHH-Fc) chain 1: QVKLEESGGGLVQPGGSLRLSCSASGSISSISVMGWYRQAPGKQRELVARITSGGISNYVDSVKGRFTISGDSAKNIVYLQMNSLKPEDTAVYYCYMYVHVGYWVDYWGQGTQVTVSS chain 2: QVQLVESGGGLVQPGGSLRLSCAASESIDSIYVMQWYRQAPEKPRDVVATLTPGGGSYYPEAVLGRFTISRDDAKNTVYLQMNSLKPEDTAVYYCNAFHRLRGTHYWGQGTQVTVSS",EC50,[5],1.8 nM
"NRC-sdAb033-Fc (Fc fusion, Bivalent VHH-human IgG1 Fc fusion from HEK293-6E cells; not shown: human IgG1 Fc) QVQLVESGGGLVQPGGSLRLSCAASESIDSIYVMQWYRQAPEKPRDVVATLTPGGGSYYPEAVLGRFTISRDDAKNTVYLQMNSLKPEDTAVYYCNAFHRLRGTHYWGQGTQVTVSS",EC50,[4],49 nM
